Results as given in publication PMC5041027 (Membranes, 2016).

Target: Bacillus anthracis protective antigen, 63 kDa activated form (PA63), as ion channels in a tethered b (B. anthracis, UniProt P13423)
Experiment: SPR
Conditions: both partners purified

Sequence of Bacillus anthracis protective antigen, 63 kDa activated form (PA63), as ion channels in a tethered b (P13423 197-764): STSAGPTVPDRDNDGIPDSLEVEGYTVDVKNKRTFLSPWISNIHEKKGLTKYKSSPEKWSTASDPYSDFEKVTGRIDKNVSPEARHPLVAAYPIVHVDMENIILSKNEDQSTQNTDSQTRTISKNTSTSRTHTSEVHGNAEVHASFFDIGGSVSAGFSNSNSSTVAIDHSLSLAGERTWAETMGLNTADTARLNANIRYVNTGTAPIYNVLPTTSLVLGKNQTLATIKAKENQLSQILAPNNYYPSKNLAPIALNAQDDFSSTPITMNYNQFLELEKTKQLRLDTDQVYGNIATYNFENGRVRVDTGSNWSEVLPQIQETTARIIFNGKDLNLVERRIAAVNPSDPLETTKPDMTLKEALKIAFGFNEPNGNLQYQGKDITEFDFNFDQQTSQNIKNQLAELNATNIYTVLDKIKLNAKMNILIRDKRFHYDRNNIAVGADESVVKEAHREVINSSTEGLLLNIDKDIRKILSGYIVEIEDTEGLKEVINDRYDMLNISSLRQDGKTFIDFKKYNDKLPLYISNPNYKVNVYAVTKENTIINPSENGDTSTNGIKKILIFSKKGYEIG

B1: Bacillus anthracis Lethal Factor (natural protein)
chain: AGGHGDVGMHVKEKEKNKDENKRKDEERNKTQEEHLKEIMKHIVKIEVKGEEAVKKEAAEKLLEKVPSDVLEMYKAIGGKIYIVDGDITKHISLEALSEDKKKIKDIYGKDALLHEHYVYAKEGYEPVLVIQSSEDYVENTEKALNVYYEIGKILSRDILSKINQPYQKFLDVLNTIKNASDSDGQDLLFTNQLKEHPTDFSVEFLEQNSNEVQEVFAKAFAYYIEPQHRDVLQLYAPEAFNYMDKFNEQEINLSLEELKDQRMLARYEKWEKIKQHYQHWSDSLSEEGRGLLKKLQIPIEPKKDDIIHSLSQEEKELLKRIQIDSSDFLSTEEKEFLKKLQIDIRDSLSEEEKELLNRIQVDSSNPLSEKEKEFLKKLKLDIQPYDINQRLQDTGGLIDSPSINLDVRKQYKRDIQNIDALLHQSIGSTLYNKIYLYENMNINNLTATLGADLVDSTDNTKINRGIFNEFKKNFKYSISSNYMIVDINERPALDNERLKWRIQLSPDTRAGYLENGKLILQRNIGLEIKDVQIIKQSEKEYIRIDAKVVPKSKIDTKIQEAQLNINQEWNKALGLPKYTKLITFNVHNRYASNIVESAYLILNEWKNNIQSDLIKKVTNYLVDGNGRFVFTDITLPNIAEQYTHQDEIYEQVHSKGLYVPESRSILLHGPSKGVELRNDSEGFIHEFGHAVDDYAGYLLDKNQSDLVTNSKKFIDIFKEEGSNLTSYGRTNEAEFFAEAFRLMHSTDHAERLKVQKNAPKTFQFINDQIKFIINS
- stoichiometry N: 2 LF molecules per PA63 channel
